Results: publication PMC3087488 (Journal of Oncology, 2011)
“And” between values parts separate entries of the source, which are not always exact repeats. Equal entries are not always repeated.

Legend:
[1] = bevacizumab 15-mg/kg cohort plus carboplatin/paclitaxel; locally advanced or metastatic NSCLC; grade 3/4, n = 5; cited from earlier work
[2] = plasma gemcitabine concentration in patients; format: in vivo, human; conditions: completion of infusion, gemcitabine 1250 mg/m^2
Procedure: Plasma motesanib and gemcitabine concentrations were analyzed using a validated liquid chromatography/tandem mass spectrometry (LC-MS/MS) method, respectively. […] All pharmacokinetic parameter estimates were calculated using standard noncompartmental methods and WinNonlin Professional software on […] (Version 5.1.1, Pharsight Corporation, Mountain View, Calif, USA).

[3] = adverse events in patients (CTCAE version 3.0); format: in vivo, human
Procedure: Adverse events were recorded throughout the study and graded (including DLTs) according to the Common Terminology Criteria for Adverse Events, version 3.0. Samples for assessment of hematology, blood chemistry, urinalysis, and thyroid function were collected on day 1 of each cycle.

[4] = serum panitumumab concentration in patients; format: in vivo, human; conditions: panitumumab 9 mg/kg
[5] = 8 patients who received panitumumab and gemcitabine/cisplatin only
[6] = all 41 patients (7%), only in patients who also received motesanib

With bevacizumab as the compound, how does the “patient incidence rate of thrombotic events” value [1] read?
Its value is 17.6%.

Which “Plasma gemcitabine concentration (cycle 1), mean (SD)” value ([2]; No motesanib (0 mg QD), n 8) does the source give for `Nc1ccn([C@@H]2O[C@H](CO)[C@@H](O)C2(F)F)c(=O)n1` [gemcitabine] here?
The value was 11000 ng/mL and 11000 (4220) ng/mL.

And the “Plasma gemcitabine concentration (cycle 1), mean (SD)” value ([2]; with motesanib 50 mg QD, n 8)?
Its value is 8450 (7310) ng/mL.

And the “Plasma gemcitabine concentration (cycle 1), mean” value ([2]; with motesanib 75 mg BID, n 2)?
The value was 8290 (NR) ng/mL.

And the “Plasma gemcitabine concentration (cycle 1), mean (SD)” value ([2]; with motesanib 75 mg QD, n 6)?
Its value is 14400 (6020) ng/mL.

And the “Plasma gemcitabine concentration (cycle 1), mean (SD)” value ([2]; with motesanib 100 mg QD, n 6)?
Its value is 6160 (3690) ng/mL.

And the “Plasma gemcitabine concentration (cycle 1), mean (SD)” value ([2]; with motesanib 125 mg QD, n 11)?
Its value is 16100 ng/mL and 16100 (6800) ng/mL.

Which results are given for panitumumab?
panitumumab-related dermatitis acneiform [3, 5]: 5 patients; panitumumab-related erythema [3, 5]: 5 patients; panitumumab-related nausea [3, 5]: 6 patients; panitumumab-related pruritus [3, 5]: 5 patients; panitumumab-related rash [3, 5]: 6 patients; panitumumab-related anemia ([3]; all 41 patients): 7 patients; panitumumab-related anorexia ([3]; all 41 patients): 11 patients; panitumumab-related diarrhea ([3]; all 41 patients): 16 patients; panitumumab-related dry skin ([3]; all 41 patients): 7 patients; panitumumab-related fatigue ([3]; all 41 patients): 19 patients; panitumumab-related hypomagnesemia ([3]; all 41 patients): 17 patients; panitumumab-related nausea ([3]; all 41 patients): 21 patients; panitumumab-related pruritus ([3]; all 41 patients): 18 patients; panitumumab-related rash ([3]; all 41 patients): 22 patients; panitumumab-related vomiting ([3]; all 41 patients): 12 patients; serious panitumumab-related diarrhea ([3]; all 41 patients (5%)): 2 patients; serious panitumumab-related dehydration ([3]; all 41 patients (7%)): 3 patients; serious panitumumab-related deep vein thrombosis [3, 6]: 3 patients; serious panitumumab-related pulmonary embolism [3, 6]: 3 patients; patients with serious panitumumab-related events ([3]; all 41 patients, eleven patients): 27%; patients who discontinued panitumumab because of adverse events ([3]; all cohorts): 11 patients; Serum panitumumab, Cycle 4 postdose mean concentration (SD) ([4]; No motesanib (0 mg QD), n 3): 275 (118) μg/mL; Serum panitumumab, Cycle 4 predose mean concentration (SD) ([4]; No motesanib (0 mg QD), n 4): 56.5 (39.6) μg/mL; Serum panitumumab, Cycle 2 postdose mean concentration (SD) ([4]; No motesanib (0 mg QD), n 6): 186 (62.9) μg/mL; Serum panitumumab, Cycle 2 predose mean concentration (SD) ([4]; No motesanib (0 mg QD), n 6): 11.2 (15.5) μg/mL; Serum panitumumab, Cycle 1 postdose mean concentration (SD) ([4]; No motesanib (0 mg QD), n 8): 206 (76.4) μg/mL; Serum panitumumab, Cycle 4 postdose mean concentration (SD) ([4]; with motesanib 50 mg QD, n 3): 232 (52.8) μg/mL; Serum panitumumab, Cycle 4 predose mean concentration (SD) ([4]; with motesanib 50 mg QD, n 3): 10.5 (6.4) μg/mL; Serum panitumumab, Cycle 2 postdose mean concentration (SD) ([4]; with motesanib 50 mg QD, n 5): 193 (37.5) μg/mL; Serum panitumumab, Cycle 1 postdose mean concentration (SD) ([4]; with motesanib 50 mg QD, n 7): 174 (24.9) μg/mL; Serum panitumumab, Cycle 2 predose mean concentration (SD) ([4]; with motesanib 50 mg QD, n 7): 9.0 (5.8) μg/mL; Serum panitumumab, Cycle 2 postdose mean concentration ([4]; with motesanib 75 mg BID, n 1): 217 (NR) μg/mL; Serum panitumumab, Cycle 2 predose mean concentration ([4]; with motesanib 75 mg BID, n 1): 11.2 (NR) μg/mL; Serum panitumumab, Cycle 1 postdose mean concentration ([4]; with motesanib 75 mg BID, n 2): 189 (NR) μg/mL; Serum panitumumab, Cycle 4 predose mean concentration (SD) ([4]; with motesanib 75 mg QD, n 5): 32.5 (21.3) μg/mL; Serum panitumumab, Cycle 1 postdose mean concentration (SD) ([4]; with motesanib 75 mg QD, n 6): 158 (24.2) μg/mL; Serum panitumumab, Cycle 2 postdose mean concentration (SD) ([4]; with motesanib 75 mg QD, n 6): 194 (21.5) μg/mL; Serum panitumumab, Cycle 2 predose mean concentration (SD) ([4]; with motesanib 75 mg QD, n 6): 13.1 (13.5) μg/mL; Serum panitumumab, Cycle 4 postdose mean concentration (SD) ([4]; with motesanib 75 mg QD, n 6): 218 (26.1) μg/mL; Serum panitumumab, Cycle 4 postdose mean concentration ([4]; with motesanib 100 mg QD, n 2): 290 (NR) μg/mL; Serum panitumumab, Cycle 2 postdose mean concentration (SD) ([4]; with motesanib 100 mg QD, n 4): 224 (51.8) μg/mL; Serum panitumumab, Cycle 4 predose mean concentration (SD) ([4]; with motesanib 100 mg QD, n 4): 41.6 (16.5) μg/mL; Serum panitumumab, Cycle 1 postdose mean concentration (SD) ([4]; with motesanib 100 mg QD, n 5): 194 (27.1) μg/mL; Serum panitumumab, Cycle 2 predose mean concentration (SD) ([4]; with motesanib 100 mg QD, n 5): 18.9 (10.7) μg/mL; Serum panitumumab, Cycle 4 postdose mean concentration (SD) ([4]; with motesanib 125 mg QD, n 3): 170 (55.0) μg/mL; Serum panitumumab, Cycle 4 predose mean concentration (SD) ([4]; with motesanib 125 mg QD, n 3): 21.7 (22.0) μg/mL; Serum panitumumab, Cycle 2 postdose mean concentration (SD) ([4]; with motesanib 125 mg QD, n 6): 213 (39.0) μg/mL; Serum panitumumab, Cycle 2 predose mean concentration (SD) ([4]; with motesanib 125 mg QD, n 6): 13.4 (14.2) μg/mL; Serum panitumumab, Cycle 1 postdose mean concentration (SD) ([4]; with motesanib 125 mg QD, n 11): 203 (82.9) μg/mL
